Substitutions are numbered along the chain they refer to. Where “and” joins values, the source holds several entries; their conditions need not be identical. Identical values can stand only once.
B1: ANGPT2-opt-31 (humanized) (antibody, human IgG1, kappa, V domains shown)
VH: QVQLVQSGAEVKKPGSSVKVSCKASGYIFIDYFINWVRQAPGQGLEWMGKIGPGSGSSSSNEKFKGRVTITADKSTSTAYMELSSLRSEDTAVYYCAREAFDYDGDYYGMAYWGQGTLVTVSS
VL: EIVMTQSPATLSVSPGERATLSCKSSQSLLSSGNQKSFLAWYQQKPGQAPRLLIYGASTRESGIPARFSGSGSGTEFTLTISSLQSEDFAVYYCQNDHSYPITFGQGTKLEIKR
notes: also called Ang2-opt-31
B2: ANGPT2-opt-2 (humanized) (antibody, human IgG1, kappa, V domains shown)
VH: B1 VH with D31E, D104E
VL: B1 VL with S31A, S37N
notes: also called Ang2-opt-2; ANGP12-opt-2
B3: ANGPT2-opt-1 (humanized) (antibody, human IgG1, kappa, V domains shown)
VH: B1 VH with D104E
VL: B1 VL with S31A, S37N
notes: also called Ang2-opt-1
B4: ANGPT2-opt-19 (humanized) (antibody, human IgG1, kappa, V domains shown)
VH: B1 VH
VL: B1 VL with K24R, S25A, L29V, S62T, N96Q
notes: also called Ang2-opt-19
B5: Nesvacumab analog (Regeneron) (antibody, V domains shown)
VH: EVQLVESGGGLVQPGGSLRLSCAASGFTFSSYDIHWVRQATGKGLEWVSAIGPAGDTYYPGSVKGRFTISRENAKNSLYLQMNSLRAGDTAVYYCARGLITFGGLIAPFDYWGQGTLVTVSS
VL: EIVLTQSPGTLSLSPGERATLSCRASQSVSSTYLAWYQQKPGQAPRLLIYGASSRATGIPDRFSGSGSGTDFTLTISRLEPEDFAVYYCQHYDNSQTFGQGTKVEIKR
notes: also called analog of REGN910 (nesvacumab); Nevescumab analog
B6: chimeric lead CL-209881 (antibody, V domains shown)
VH: QVQLKQSGAELVKPGSSVKISCRASGYIFIDYFINWVKQRPGQGLEWIGKIGPGSGSSSSNEKFKGKATLTADKSSSTAYMQLSSLTSEDSAVYFCAREAFDYDGDYYGMAYWGQGTSVTVSS
VL: DIVMTQSPSSLSVSAGEKVTMSCKSSQSLLNSGNQKNFLAWYQQKPGQPPKLLIYGASTRESGVPDRFTGSGSGTDFTLTITSVQAEDLAVYYCQNDHSYPITFGSGTKLEIK
notes: Chimeric antibody with murine variable domains; the constant regions of the tested antibody are not
B7: MEDI3617 analog (Medimmune) (antibody, human IgG1, kappa, V domains shown)
VH: QVQLVESGGGVVQPGRSLRLSCAASGFTFTNYGMHWVRQAPGKGLEWVAVISHDGNNKYYVDSVKGRFTISRDNSKNTLYLQMNSLRAEDTAVYYCAREGIDFWSGLNWFDPWGQGTLVTVSS
VL: EIVLTQSPGTLSLSPGERATLSCRASQSITGSYLAWYQQKPGQAPRLLITGASSWATGIPDRFSGSGSGTDFTLTISRLEPEDFAVYYCQQYSSSPITFGQGTRLEIKR
notes: Based on the description in U.S. Pat. No. 8,507,656; also called MED3617 analog; analog of MED3617
B8: LC06 (Roche) (antibody, human IgG1, lambda, V domains shown)
VH: not shown
VL: QPGLTQPPSVSVAPGQTARITCGGNNIGSKSVHWYQQKPGQAPVLVVYDDSDRPSGIPERFSGSNSGNTATLTISRVEAGDEADYYCQVWDSSSDHYVFGTGTKVTVLG
notes: Based on the description in U.S. Pat. No. 9,340,609

Target: T1, Human ANGPT2 Dimer (CC-FLD) (human, UniProt O15123 74-496, limits assumed)
T1 construct: domain: CC-FLD; also called ANGPT2 protein with His-tag; not shown: His-tag
T1 sequence (looked up): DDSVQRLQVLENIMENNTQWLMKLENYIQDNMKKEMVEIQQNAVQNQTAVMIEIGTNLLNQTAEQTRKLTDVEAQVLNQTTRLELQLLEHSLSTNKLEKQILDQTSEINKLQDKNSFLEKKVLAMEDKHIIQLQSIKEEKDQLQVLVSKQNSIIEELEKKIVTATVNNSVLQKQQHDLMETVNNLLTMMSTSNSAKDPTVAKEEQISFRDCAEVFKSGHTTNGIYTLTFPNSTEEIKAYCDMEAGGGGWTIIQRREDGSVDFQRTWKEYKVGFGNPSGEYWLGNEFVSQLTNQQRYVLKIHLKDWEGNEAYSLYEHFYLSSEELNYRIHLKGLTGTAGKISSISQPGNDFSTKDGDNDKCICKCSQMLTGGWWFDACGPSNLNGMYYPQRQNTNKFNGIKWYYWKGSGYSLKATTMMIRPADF
Assay: flow cytometry blocking assay: antibody titrated against His-tagged human ANGPT2 dimer (CC-FLD) binding to HEK293 human Tie2 cells
Experimental: Human ANGPT2 Dimer (CC-FLD) is pre-incubated with the testing antibodies. The ANGPT2/Antibody mixture is then incubated with HEK293 human Tie2 cells at 4° C. After washing, the cells are stained with anti-His-AF647 (from GenScript) for detection of the His-tag on the ANGPT2 protein. The binding of the secondarily labelled ANGPT2 to human Tie2 cells is detected by FLOW cytometry. The average of the duplicate values for each concentration point is used to derive the curve fit graphs. Antibodies that prevent ANGPT2 from binding to the Tie2 cells are considered blocking antibodies. The results are shown in FIGS. 3A-3G and the EC50 values are shown in Table 5 based on the average of duplicate values.

Binder	EC50
B1	13 nM
B2	14.8 nM
B3	13.2 nM
B4	15.1 nM

Target: T2, rat ANGPT2 (rat, UniProt O35462 275-496, limits assumed)
T2 construct: domain: FLD domain; also called rat ANGPT2 FLD domain
T2 sequence (looked up): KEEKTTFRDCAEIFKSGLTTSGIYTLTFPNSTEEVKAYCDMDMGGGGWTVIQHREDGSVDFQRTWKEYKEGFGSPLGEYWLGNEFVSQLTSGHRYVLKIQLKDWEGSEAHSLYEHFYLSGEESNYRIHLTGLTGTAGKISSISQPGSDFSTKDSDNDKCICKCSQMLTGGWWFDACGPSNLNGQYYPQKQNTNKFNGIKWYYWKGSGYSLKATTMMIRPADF
Assay: SPR (ProteOn XPR36), antibody captured on Protein A/G, rat ANGPT2 as analyte
Experimental: (§1) The binding affinity to the various ANGPT2 analytes is determined by surface plasmon resonance (SPR) using a ProteOn XPR36 (Bio-Rad). Unless otherwise stated, all reagents are obtained from Bio-Rad. The running buffer for all assays and dilutions (except where stated) is phosphate buffered saline (PBS)/ethylenediamine tetraacetic acid (EDTA) with 0.01% Tween20 (PBS-T-EDTA). PBS-T-EDTA is prepared by adding 100 μl of 100% Tween20 to 2 L of PBS-T-EDTA with an initial concentration of 0.005% Tween20 to make a final Tween20 concentration of 0.01%. The general linearized model (GLM) sensorchip is normalized, pre-conditioned, and activated with an equal mixture of 1-ethyl-3-[3-dimethylaminopropyl]carbodiimide (EDC)/N-hydroxysulfosuccinimide (s-NHS) in the horizontal direction for 300 sec at a flow rate of 30 μl/min. Immobilization is then is done with Recombinant Protein A/G (Thermo Scientific) (60 μg/ml in 10 mM acetate pH 4.5) in the horizontal direction for 300 sec at a flowrate of 30 μl/min resulting in about 4370-4875 response units (RUs) of Protein A/G on the surface. The sensorchip is then deactivated with 1M ethanolamine HCl in the horizontal direction for 300 sec at a flowrate of 30 μl/min. The sensorchip is stabilized with 18 sec of 0.85% phosphoric acid at a flowrate of 100 μl/min 3 times horizontally and 3 times vertically.
Each ANGPT2 antibody is captured on the Protein A/G surface vertically for 300 sec at a flowrate of 30 μl/min resulting in a capture level of about 2500 RU. The baseline is stabilized by injecting PBS-T-EDTA for 60 sec at a flowrate of 100 μl/min horizontally with dissociation of 120 sec. The analyte (e.g., HuANGPT2) is injected horizontally over the captured antibody for 300 sec at a flowrate of 30 μl/min and a dissociation for 1800 sec. […] The surface is regenerated by injecting 0.85% phosphoric acid for 18 sec at a flowrate of 100 μl/min one time horizontally and one time vertically. PBS-T-EDTA is injected for 60 sec at a flowrate of 100 μl/min one time vertically and one time horizontally. […]

Binder	Kd
B2	≥ 118 nM
B4	≥ 118 nM
B5	0.159 nM

Target: T3, cynomolgus (cyno) ANGPT2 (cynomolgus, UniProt A0A2K5VNX6 275-496)
T3 construct: domain: FLD domain; also called cyno ANGPT2 FLD domain
T3 sequence: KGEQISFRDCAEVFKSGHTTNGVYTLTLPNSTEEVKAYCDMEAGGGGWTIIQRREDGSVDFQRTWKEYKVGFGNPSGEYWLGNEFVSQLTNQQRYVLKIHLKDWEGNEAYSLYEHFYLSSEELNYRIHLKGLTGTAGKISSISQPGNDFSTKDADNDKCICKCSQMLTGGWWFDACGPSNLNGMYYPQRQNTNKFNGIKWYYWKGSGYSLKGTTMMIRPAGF
Assay: SPR (ProteOn XPR36), antibody captured on Protein A/G, ANGPT2 as analyte, 1:1 Langmuir fit
Experimental: as §1
(§2) Each ANGPT2 antibody is captured on the Protein A/G surface vertically for 300 sec at a flowrate of 30 μl/min resulting in a capture level of about 2500 RU. The baseline is stabilized by injecting PBS-T-EDTA for 60 sec at a flowrate of 100 μl/min horizontally with dissociation of 120 sec. The analyte (e.g., HuANGPT2) is injected horizontally over the captured antibody for 300 sec at a flowrate of 30 μl/min and a dissociation for 1800 sec. […] The surface is regenerated by injecting 0.85% phosphoric acid for 18 sec at a flowrate of 100 μl/min one time horizontally and one time vertically. PBS-T-EDTA is injected for 60 sec at a flowrate of 100 μl/min one time vertically and one time horizontally.
(§3) The interspot (interactions with sensor surface) and blank (PBS-T-EDTA with 0.01% Tween20 or 0 nM of analyte (here HuANGPT2)) are subtracted from the raw data.

Binder	Kd	koff	kon
B1	0.145 nM	1.96e-05 s⁻¹	135000 M⁻¹ s⁻¹
B2	0.626 nM	8.45e-05 s⁻¹	135000 M⁻¹ s⁻¹
B3	0.36 nM	5.48e-05 s⁻¹	152000 M⁻¹ s⁻¹
B4	0.844 nM	7.4e-05 s⁻¹	87700 M⁻¹ s⁻¹
B6	0.24 nM	3.93e-05 s⁻¹	164000 M⁻¹ s⁻¹

Target: T4, human ANGPT2 (SPR analyte) (human, UniProt O15123 275-496, limits assumed)
T4 construct: domain: FLD domain; also called HuANGPT2; human ANGPT2 FLD domain
T4 sequence (looked up): T3 sequence with G2E, V23I, L28F, V35I, A154G, G212A, G221D
Assay: as above
Experimental: as §1, §2, §3

Binder	Kd	koff	kon
B1	0.091 nM	1.14e-05 s⁻¹	125000 M⁻¹ s⁻¹
B2	0.649 nM	8.11e-05 s⁻¹	125000 M⁻¹ s⁻¹
B3	0.294 nM	4.25e-05 s⁻¹	144000 M⁻¹ s⁻¹
B4	0.712 nM	5.83e-05 s⁻¹	81800 M⁻¹ s⁻¹
B7	27 nM	0.0166 s⁻¹	614000 M⁻¹ s⁻¹
B6	0.155 nM	2.34e-05 s⁻¹	151000 M⁻¹ s⁻¹
B8	12 nM	–	–

Target: T5, rhAngiopoietin-2 (R&D systems cat 623-AN/CF) (human, UniProt O15123 19-496, limits assumed)
T5 sequence (looked up): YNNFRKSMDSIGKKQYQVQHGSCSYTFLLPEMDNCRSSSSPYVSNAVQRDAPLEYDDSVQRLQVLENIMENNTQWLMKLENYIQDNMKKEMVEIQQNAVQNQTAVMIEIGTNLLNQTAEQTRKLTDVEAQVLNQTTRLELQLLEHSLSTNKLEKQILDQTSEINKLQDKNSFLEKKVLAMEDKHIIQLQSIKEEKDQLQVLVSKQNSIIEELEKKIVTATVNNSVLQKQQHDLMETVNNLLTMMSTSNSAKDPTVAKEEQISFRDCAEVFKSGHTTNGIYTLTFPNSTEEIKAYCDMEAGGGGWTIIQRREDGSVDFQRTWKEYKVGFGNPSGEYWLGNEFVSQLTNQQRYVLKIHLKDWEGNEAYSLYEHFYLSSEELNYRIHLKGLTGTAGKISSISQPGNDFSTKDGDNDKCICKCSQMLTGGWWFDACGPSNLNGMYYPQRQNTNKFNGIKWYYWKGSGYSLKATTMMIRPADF
Assay: cell-based or functional assay

Binder	Tie2 phosphorylation functional assay, EC50
B1	3.8 nM and 4.4 nM
B2	1.8 nM and 1.9 nM
B3	3 nM and 3.2 nM
B4	5 nM and 4.6 nM
B7	2.7 nM
B8	1.3 nM
